{"source": "paper PMC8241641", "about": "(European Journal of Nuclear Medicine and Molecular Imaging, 2021)", "origin": "cited, not measured here", "set-up": "method as in PMID 28864620", "data": [{"substance": "[^177Lu]Lu-DOTA-TATE", "values": [{"measurement": "Dose to the bone marrow typically calculated", "result": "0.03–0.07 Gy/GBq"}]}]}
